Molecular target: the molecule itself
Experiment: not stated; purified water-soluble DHRS9 in solution; the method is shown only in Fig. S3

B1: water-soluble form of mouse DHRS9 (dehydrogenase reductase 9) lacking the N-terminal transmembrane segment (enzyme, UniProt Q58NB6 17-319, looked up)
chain: NYKGQLKIADIADKYVFITGCDTGFGNLAARTFDKKGFRVIAACLTESGSAALKAKTSERLHTVLLDVTDPENVKKTAQWVKSHVGEKGLWGLINNAGVLGVLAPTDWLTVDDYREPIEVNLFGLINVTLNMLPLVKKARGRVINVSSIGGRLAFGGGGYTPSKYAVEGFNDSLRRDMKAFGVHVSCIEPGLFKTELADPIKTTEKKLAIWKHLSPDIKQQYGEGYIEKSLHRLKSNTSSVNLDLSLVVGCMDHALTSLFPKTRYIAGKDAKTFWIPLSHMPAVLQDFLLLKQKVELANPKAV
notes: mouse DHRS9 lacking the first 16 amino acids that form the transmembrane segment; residues 17 to 319; cDNA made by RT-PCR from mouse skin; Crystallised in complex with NADH; In the model, residues 21-319 (chain A) and 22-319 (chain B) are seen; the tag and residues 17-20/21 could not be located; also called soluble form of DHRS9; truncated DHRS9 protein; not shown: His10, N-terminal, kept
stoichiometry N: 2

From PMC12538056, “The effects of naturally occurring mutations on functionality of oxylipin metabolizing dehydrogenase reductase nine” (The Journal of Biological Chemistry, 2025)
